Source: the nanobody polyreactivity screen of Harvey et al. (2022)

Experiment: yeast display, Sf9 membrane polyspecificity reagent, FACS + sequencing; frameworks hold sequencing errors
In short: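 Genes from sorted yeast were amplified by colony PCR, read by MiSeq 2 × 250 sequencing and filtered on CDR length. These cells carried a synthetic nanobody library in Saccharomyces cerevisiae BJ5465 and were sorted by FACS into low and high (top ~1%) gates on anti-HA and streptavidin fluorescence. Polyreactivity is labelled according to the gate of origin.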

Row | Sequence | polyreactivity (PSR sort gate)
1 | QVQLVESGGGLVQAGGSLRLSCAASGSTLNSYVMGWYRQAPGKERELVATIRSGSSTNYADSVKGRFTISRDNAKNTVYLQMNSLKPEDTAVYYCAGDAYSLCYDSWGQGTQVTVSS | low polyreactivity
2 | QVQLVESGGGLVQAGGSLRLSCAASGSTFGVYAMGWYRQAPGKERELVAAISYTGGSTYYADSVKGRFTISRDNAKNTVYLQMNSLKPEDTAVYYCATRSRDQYSVSYRLDYWGQGTQVTVSS | low polyreactivity
3 | QVQLVESGGGLVQAGGSLRLSCAASGLIFAPYAMGLYRQAPGKERELVAAISFRGGSTYYADSVKGRFTISRDNAKNTVYFQMNSLKPEDTAVYYSAADWLYDYGEYYYWGQGTQVTVSS | high polyreactivity
4 | QVQLVESGGGLVQAGGSLRLSCAASGFTFYKNAMGWYRQAPGKERELVAAISRSGGSTYYADSVKGRFTISRDNAKNTVYLKMNSLKPEDTAVYYWAKGYCNFYRSDYWGQGTHVTVSS | high polyreactivity
5 | QVQLVESGGGLVQAGGSLRLSCAASGITFGIYVMGWYRQAPGKERELVATISRSDDNTYYADSVKGRFTISRDNAKNTVYLQMNSLKPEDTAVYYCAADGVISAWYSSRDDYWGQGTQVTVSS | low polyreactivity
6 | QVQLVESGGGLVQAGGSLRLSCAASGSTSPGYAMGWYRLEPGKERELVAAITFRGTRTYYADSVKGRFTISRDNAKKTVYLLMNSLKPEDTAVYYCNVVGYGPNRGRVDYWGQGTQVTVSS | high polyreactivity
7 | QVQLVESGGGLVQAGGSLRLSCAASGSTFLYYAMGWYRQAPGKERELVAAIDSGGSTYYADSVKGRFTISRDNAKNTVYLQMNSLKPEDTAVYYCNADFADHWPPNGPGALDYWGQGTQVTVSS | low polyreactivity
8 | QVQLVESGGGLVQAGGSLRLSCAASGFNFRYYAMGWYRQAPGKERELVAAISASSGRTYYADSVKGRFTISRDNAKNTVYLQMNSLKPEDTAVYYCAAEYIRNGDYGLDYWGQGTQVTVSS | high polyreactivity
9 | QVQLVESGGGLVQAGGSLRLICAASGIIFVPNAMGWYSQAPGKERELVAAIDRGGGTTYADSVKGRFTISRDNAKNTVYLQMNSLKPEDTAVYYCAAAWGVGPDQGHDYWGQGTQVTVSS | low polyreactivity
10 | QVQLVESGGGLVQAGGSLRLSCAASGSIFGANTMGWYRQAPGKERELGAAISKRGGSTYYADSVKGRFTISRDNAKNTVYLQMNSLKPEDTAVYYCNATPRYLRQYVDPNWGYDYWGQGTQVTVSS | low polyreactivity
11 | QVQLQESAGGLVQAGGSLRLRCSASGYISCDASMGWNRQAPGKERELAASITKGSSTNYADSVKGRFTIRDNAKNTVYLQMNSLKPEDTAVCYCAVTYPYWGDYTYWGQGTQVTVSR | low polyreactivity
12 | QVQLVESGGGLVQAGGSLRLSCAASGFTFSVNDMGWYRQAPGKERELVAGISRGDNTNYADSVKGRFTISRDNAKNTVYLQMNSLKPEDTAVYYCAADFSLGLYRSWFGDYDYWGQGTQVTVSS | low polyreactivity
13 | QVQLVESGGVLVQAGGSLPLSCAASGSIFGSYAMGWSRQAPGKERELVAAIRWSGGSTRYADSVKGRFTISRDIAKNRVYLHMNSLKPEDTAVYYCAAVWRYLGYTSMDYWGQGTQVTVSS | low polyreactivity
14 | QVQLVESGGGLVQARGSLRLSCAATGRTFQIYAMGWYRQAPGKERELVAAISSGGRTNYADSVKGRFTISRDNAKNTVYLQMNSLKPEDTAVYYCAKRWARPGMDYWGQGTQVTVSS | high polyreactivity
15 | QVQHVESRGGLVQAGGSLRLSCAASGSTFDGNAMGWYRQAPGTETELVAGISYRGGSTYYADSVKGRFTISRDYAKNSVYLQMNRLKPEDTAVYYCAADDYVYWLFDYWGQGTQVTVSS | low polyreactivity
16 | QVQLVESGGGLVQAGGSLRLSCAASGFIFQAYAMGWYRQAPGKERELVAAISSSGGSTYYADSVKGRFTISRDNAKNTVYLQMNSLKPEDTAVYYCAARSRRVSLIRDSYGYWGQGTQVTVSS | high polyreactivity
17 | QVQLVESGGGLVQAGGSLRLSCAASGYIFQKNAMGWYRQAPGKERELVAAISSGTDRTYYADSVKGRFTISRDNAKYTVYLQMNSLKPDDTAVYYCAARYWGGYYYWGQGTQVTVSS | high polyreactivity
18 | QVQLVESGGGLVQAGGSLRLSCAASGFTFNYNAMGWYRQAPGKERELVAAISASGGTTYYADSVKGRFTISRDNAKNTVYLQMNSLKPEDTAVYYCAAPKLDDYDYWGQGTQVTVSS | low polyreactivity
19 | QVQLVESGGGLVQAGGSLRLSCAASGRIFYYYAMGWYRQAPGKERELVADITSGGSTNYADSVKGRFTISRDNAKNTVYLQMNSLKPEDTAVYYCAAEYGDVYVWTYDYWGQGTQVTVSS | high polyreactivity
20 | QVQLVESGGGLVQAGGSLRLSCAASGSIVPFYAMGWDRQAPGKERELVATISSGDSTHYADSVKGRFTISRDNAKNTVYLQMNSLKPEDTAVYYCNRRNKAQRFFELGYWGQGTQVTVSS | low polyreactivity
21 | QVQLVESGGGLVQAGGSLRISCAASGSTIQQYAMGRYRQAPGKEREFVAAISWRGGRTYYADSVKGRFTISRDNAKNTVYLQMNSLKPEDTAVYYCAVDPSIYRLSAYYYDYWGQGTQVTVSS | low polyreactivity
22 | QVQLVESGGGLVQAGGSLRLSCAASGFTFYLYAMGWYRHAPGKERELVAAISVDGGSTYYADSVKGRFTISRDNAKNTVYLQMNSLKPEDTAVYYCAARLYGRYRYDYWGQGTQVTVSS | low polyreactivity

Row | Sequence | polyreactivity (PSR sort gate)
23 | QVQLVESAAGLVQAVGSLRLSCAPSGITFYDYTMGWYRQAPGKERELVAAITSSGVSTYYADSVKGRFTISRDNAKNTVYLQMNSLKPEDTAVYYCATDAWSVYSYLAFTYDYWGQGTQVTVSS | low polyreactivity
24 | QVQLVESGGGLVQAGGSLRLSCAASGRTFARYAMGSYRQAPGKERELDAAITSGGSTNYADSVKGRFTISRDNAKNTVYLQMNSLKPEDTAVYYCNARRRAPKGPIPAGNYWGQGTQVTVSS | high polyreactivity
25 | QVQLVESGGGLVQAGGSLRLSCAASGFTFAYNAMGWYRQAPGKERELVAAISGRGVSTYYADSVKGRFTISRDNAKNTVYLQMNSLKPEDTAVYYCAKRYRYWTTERYDYWGQGTQVTVSS | high polyreactivity
26 | QVQLVESGGGLVQAGGSLRLSCAASGITLYYYVMGWYRQAPGKERELVAAISWNSGRTYYADSVKGRFTISRDNAKNTVYLQMNSLKPEDTAVYYCAARPPVRLTYRYSYDYWGQGTQVTVSS | high polyreactivity
27 | QVQLVESGGGLVQAGGSLRLSCAASGITYRGYAMGWYRQAPGKERELVAAISSGGSTSYADSLKGRFTISRDNAKNTVYLQMNSLKPEDTAVYYCAKDDERKQGQYPPYDSWGQGTQVTVSS | low polyreactivity
28 | QVQLVESGGGLVQAGGRLRLSCAASGSTLDPYAMGLYRQAPGKERELVAAITISGGTTYNADSVKGRFTISRDNAKNTVYLQMNSMKPEDTAVYYCAAEGTYVTLGYYNLDVRYDYWGQGTQVTVSS | low polyreactivity
29 | QVQLVESGGGLVQAGGSLRLSCAASGSILYTYAMGWYRQAPGKERELVAAISRGGGSTYYADSVKGRFTISRDNAKNTVYLQMNSLKPEDTAVYYCAARKLTRGTGRDDEYWGQGTQVTVSS | high polyreactivity
30 | QVQLVESGGGLVQAGGSLRLSCAASGHTFRGYDMGWYRQATGKQRELFASISSSGGSTYYADSVKGRFTISRDNAKNTVYLQMNSLKPEDTAVYYCATRDGVVDTEPDQSYAVELDYWGQGTQVTVSS | low polyreactivity
31 | QVQLEESGGGLVQAGGSLRLSCAASGSTFTFYAMGRYRQAPGKERELVAAINGRGGSTYYADSVKGRFTISRDNAKNTVYLQMNSLKPEDTAVYYCATRLYYSVRYNMGYWGQGTQVTVSS | high polyreactivity
32 | QDQHVESGGGLVQAGASLRLSCSASGRIFRRYAMGWYRQAPGKERELVAAISWSGGTTYYADSVKGRFTISRDNAKNTVYLQINSLKPEDTAVYYCAKLYSSVTTTYPYGLPRYDSWGQGTQVTLSS | high polyreactivity
33 | QVQLVESVRGLVHAGGSLRLSCAASGSTFYPYRMGGYRQAPGKEREFVAAITWSGGSTYYADSVKGRFTISRDNAKNTVYLQMNSLKPEDTAVYYCNKDARWYAYNSEYDHWGQGTQVSVSS | low polyreactivity
34 | QVQLVESGGGLVQAGGSLRLSCAASGSIFYWYAMGWYRQAPGKEREFVAGITGRGGSTYYADSVKGRFTISRDNAKNTVYLQMNSLKPEDTAVYYADFVKYGKYYQRYDYWGQGTQVTVSS | high polyreactivity
35 | QVQLVESGGRIVQAGRSLRLTCAASGRTFRNYAMGWYRQAPGKEREFVAAITSRSSRTYYADSVKGRFTISRDNEKNTVYLQMNSLIPEDTAVYYCARGSELGYYAWVYYWGQGTQVTVSS | high polyreactivity
36 | QVQLVESGGGLVQAGGSLRLSCAASGFIFSYYAMGWYRQAPGKERELVAAITVRGGSTYYADSVKGRFTISRDNAKNTVYLQRNCLKPEDTAVYYCNTVHGLWRRYNYWGQGTQVTVSS | high polyreactivity
37 | QDQLVESGGGLVQAGGSLRLSCAASGSTVYFNAMGWYRPAPGKERELVASITSGGSTNYADSVKGRFTISRDNAKNTVYLQMNCLKPEDTAVYYCAAGLYLQGPLDYWGQGTQVTVSS | low polyreactivity
38 | QVQLVESGGGLVQAGGSLRLTCAASGRIFYQYAMGWYRQAPGKEMDLVASITTSGGNTYYADSVKGRFTISRDNAKNTVYLQMNSLKPEDTAVYYCAARFNWRQWLYEYWGQGTQVTVSS | low polyreactivity
39 | QVQLVESGGGLVQAGGSLRLSCASSGSIFEANDMGWYRQAPGKEREFVADIDANSGSTYYADSVKGRFTISRDNAKNTVNLQMNSLKPEDTADYYCNAQVYLHTAYDYWGQVTQVTVSS | low polyreactivity
40 | QVQLVESGGGLVQAGGSLRLICAASGFIFGSYAMGWYRQAPAKERELVAAINYDGGSTYYADSVKGRFTISRDNAKNTVYLQMNSMKPEDTAVYYCAADLYYTHMDYWGQGTQVTVSS | low polyreactivity
41 | QVQLVESGGGLVQAGGSLRLSCASSGRIFGYYVRGWYRQAPGTERELVATISRVGTTNYADSVKGRFTISRDNAKNSVYLPMNSLKPEDTAVYYCNADYTGHRGGNDYWGQGTQVTVSS | low polyreactivity
42 | QDQLVEAGGGVVQAGGSLRLSCAASVIIIDYYAMAWYRQAPAKERELDAAITSGGSTSYADSVKGRFTISRDNAKNTVYLQMNSLKPEDTAVYYCNNEPSGYQSAYWGQGTQVTVSS | low polyreactivity
43 | QVQLVESGGGLVQAGGSLRLSCAASGRIFQYNAMGWYRQAPGKDRELVAAIRRGGGSTYYADSVKGRFTISRDNAKNTVYLQMNSLKPEDTAVYYCAARRKRVSFYPEYDYWGQGTQVTVSS | low polyreactivity
